Target: CD70 (human) (UniProt P32970)
Assay: cell-based or functional assay

CD70 (human), sequence (P32970 whole entry): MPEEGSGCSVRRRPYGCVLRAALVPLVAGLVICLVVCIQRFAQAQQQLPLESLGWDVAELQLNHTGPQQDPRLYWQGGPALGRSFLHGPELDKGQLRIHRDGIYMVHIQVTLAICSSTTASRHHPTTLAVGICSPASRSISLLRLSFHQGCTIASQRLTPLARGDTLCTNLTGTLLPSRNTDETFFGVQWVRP

IgG synthesis by purified B cells stimulated with LPS (control without T cells): 125 µg/mL
Substance: anti-CD70 monoclonal antibody (HNE51) (DAKO)

— patent US20080182247A1
